Assay results: article PMC5770381

What was measured:
Assay in all cases: purified protein
[1] = test system: CC1(C)S[C@@H]2[C@H](NC(=O)[C@H](N)c3ccc(O)cc3)C(=O)N2[C@H]1C(=O)O; conditions: Tris-HCl pH 7.4, 35 °C, 20-500 μM substrate
[2] = test system: C[C@@H](O)[C@H]1C(=O)N2C(C(=O)O)=C(S[C@@H]3CN[C@H](C(=O)N(C)C)C3)[C@H](C)[C@H]12; conditions: Tris-HCl pH 7.4, 35 °C, 10-200 μM substrate
[3] = test system: CO/N=C(\C(=O)N[C@@H]1C(=O)N2C(C(=O)O)=C(COC(C)=O)CS[C@H]12)c1csc(N)n1; conditions: Tris-HCl pH 7.4, 35 °C, 10-100 μM substrate

What does the source list for “ElBla2 (Erythrobacter litoralis HTCC2594)”?
Km [1]: 39 ± 9 µM; kcat [1]: 1.4 ± 0.1 s⁻¹; kcat/Km [1]: 40000 M⁻¹ s⁻¹; Km [2]: 19 ± 6 µM; kcat [2]: 2.1 ± 0.2 s⁻¹; kcat/Km [2]: 110000 M⁻¹ s⁻¹; Km [3]: 13 ± 4 µM; kcat [3]: 0.9 ± 0.1 s⁻¹; kcat/Km [3]: 70000 M⁻¹ s⁻¹
